± gives the uncertainty stated by the source.
Experiment: self-splicing fitness, log relative to wild type (ln ratio); higher = more splicing; Tetrahymena group I intron in knt gene, E. coli kanamycin selection, DiMSum; sequences stand for … in CUCUCU…GGAGGGAAAAGUUAUCAGGCAUGCACCUGGUAGCUAGUCUUUAAACCAAUAGAUUGCAUCGGUUUAAAAGGCAAGACCGUCAAAUUGCGGGAAAGGGGUCAACAGCCGUUCAGUACCAAGUCUCAGGGGAAACUUUGAGAUGGCCUUGCAAAGGGUAUGGUAAUAAGCUGACGGACAUGGUCCUAACCACGCAGCCAAGUCCUAAGUCAACAGAUCUUCUGUUGAUAUGGAUGCAGUUCACAGACUAAAUGUCGGUCGGGGAAGAUGUAUUCUUCUCAUAAGAUAUAGUCGGACCUCUCCUUAAUGGGAGCUAGCGGAUGAAGUGAUGCAACACUGGAGCCGCUGGGAACUAAUUUGUAUGCGAAAGUAUAUUGAUUAGUUUUGGAGUACUCGUGGUCG
Procedure, shortened: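 DiMSum derived fitness as the error-weighted combination of fold changes across replicates, kanamycin versus no kanamycin, normalised to wild type. E. coli BL21(DE3) held the library, which randomised all eight P1ex-region intron nucleotides within the knt kanamycin-resistance gene on pET-22b(+). Six replicate transformations grew overnight at 37°C or 30°C on LB agar with or without 25 μg/mL kanamycin, also containing 100 μg/mL carbenicillin, 50 μM IPTG and 0.2% rhamnose, and pooled colonies were amplicon-sequenced on an Illumina HiSeq 2500.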

| Sequence | self-splicing fitness (ln) (30 °C) | self-splicing fitness (ln) (37 °C) |
| --- | --- | --- |
| AAGAAGCAAUAUUACGAACU | -0.3 ± 0.091 | 0.86 ± 0.11 |
| AAGAAGCAAUAUUACGAAUU | -1.53 ± 0.084 | -0.992 ± 0.12 |
| AAGAAGCAAUAUUACGACAU | -0.0917 ± 0.012 | -0.0361 ± 0.032 |
| AAGAAGCAAUAUUACGACGG | -1.52 ± 0.078 | -1.15 ± 0.14 |
| AAGAAGCAAUAUUACGAGGG | -3.5 ± 0.3 | -2.32 ± 0.35 |
| AAGAAGCAAUAUUACGAGUC | -2.53 ± 0.23 | -1.51 ± 0.25 |
| AAGAAGCAAUAUUACGCCAG | -2.87 ± 0.26 | -2.3 ± 0.27 |
| AAGAAGCAAUAUUACGCGCA | 0.0488 ± 0.077 | 0.115 ± 0.1 |
| AAGAAGCAAUAUUACGCGGG | -2.95 ± 0.2 | -0.684 ± 0.11 |
| AAGAAGCAAUAUUACGCGGU | -3.58 ± 0.3 | -1.54 ± 0.19 |
| AAGAAGCAAUAUUACGCUAU | -3.04 ± 0.17 | -1.44 ± 0.17 |
| AAGAAGCAAUAUUACGGAAC |  | -2.58 ± 0.45 |
| AAGAAGCAAUAUUACGGAAU | -1.67 ± 0.12 | -1.85 ± 0.2 |
| AAGAAGCAAUAUUACGGAUC | -1.23 ± 0.11 | 0.142 ± 0.17 |
| AAGAAGCAAUAUUACGGCUU | -2.42 ± 0.14 | -3.23 ± 0.24 |
| AAGAAGCAAUAUUACGGGCG | -1.48 ± 0.081 | -0.421 ± 0.11 |
| AAGAAGCAAUAUUACGGGUC | -4.04 ± 0.35 | -1.69 ± 0.21 |
| AAGAAGCAAUAUUACGUGCA | -0.663 ± 0.08 | -0.0733 ± 0.1 |
| AAGAAGCAAUAUUACGUGGA | -2.97 ± 0.12 | -2.44 ± 0.12 |
| AAGAAGCAAUAUUACGUUCG | -0.932 ± 0.084 | -0.625 ± 0.1 |
| AAGAAGCAAUAUUACGUUGA | -1.76 ± 0.12 | -2.25 ± 0.14 |
| AAGCAGCAAUAUUACGAAAA | -2.81 ± 0.25 | -1.77 ± 0.16 |
| AAGCAGCAAUAUUACGAAAU | -2.65 ± 0.11 | -1.33 ± 0.12 |
| AAGCAGCAAUAUUACGACGA | -0.888 ± 0.089 | -0.307 ± 0.094 |
| AAGCAGCAAUAUUACGAGCA | -0.694 ± 0.073 | -0.435 ± 0.086 |
| AAGCAGCAAUAUUACGAUAC | -2.7 ± 0.14 | -1.7 ± 0.18 |

| Sequence | self-splicing fitness (ln) (30 °C) | self-splicing fitness (ln) (37 °C) |
| --- | --- | --- |
| AAGCAGCAAUAUUACGAUGA | -0.809 ± 0.078 | -0.909 ± 0.083 |
| AAGCAGCAAUAUUACGCCGU | -1.22 ± 0.11 | -0.738 ± 0.13 |
| AAGCAGCAAUAUUACGCGAG | -0.949 ± 0.095 | -0.986 ± 0.11 |
| AAGCAGCAAUAUUACGCGCC | -1.33 ± 0.11 | -1.24 ± 0.15 |
| AAGCAGCAAUAUUACGCGGC | -3.33 ± 0.35 | -2.4 ± 0.24 |
| AAGCAGCAAUAUUACGCUAA | -1.46 ± 0.075 | -1.12 ± 0.086 |
| AAGCAGCAAUAUUACGCUCC | -1.82 ± 0.16 | -0.511 ± 0.2 |
| AAGCAGCAAUAUUACGCUGG | -3.27 ± 0.21 | -1.72 ± 0.15 |
| AAGCAGCAAUAUUACGCUUG | -2.89 ± 0.16 | -2.14 ± 0.16 |
| AAGCAGCAAUAUUACGGCUG | -2.92 ± 0.12 | -2.75 ± 0.16 |
| AAGCAGCAAUAUUACGGUAG | -3.38 ± 0.15 | -3.25 ± 0.2 |
| AAGCAGCAAUAUUACGUAAU | -1.49 ± 0.068 | -0.923 ± 0.094 |
| AAGCAGCAAUAUUACGUAGA | -2.7 ± 0.097 | -1.42 ± 0.082 |
| AAGCAGCAAUAUUACGUCAC | -4.94 ± 0.42 | -2.25 ± 0.3 |
| AAGCAGCAAUAUUACGUCAU | -3.1 ± 0.14 | -1.76 ± 0.14 |
| AAGCAGCAAUAUUACGUCUC | -1.28 ± 0.065 | -0.717 ± 0.077 |
| AAGCAGCAAUAUUACGUGUA | -1.83 ± 0.081 | -0.134 ± 0.077 |
| AAGCAGCAAUAUUACGUUUC | -3.3 ± 0.16 | -2.27 ± 0.31 |
| AAGGAGCAAUAUUACGAAAU | -2.26 ± 0.14 | -3 ± 0.29 |
| AAGGAGCAAUAUUACGAGCU |  | -0.204 ± 0.24 |
| AAGGAGCAAUAUUACGAGGG | -2.76 ± 0.24 | -2.93 ± 0.3 |
| AAGGAGCAAUAUUACGAUGA | -3.04 ± 0.24 | -2.02 ± 0.2 |
| AAGGAGCAAUAUUACGAUGU | -2.12 ± 0.14 | -2.28 ± 0.23 |
| AAGGAGCAAUAUUACGCACG | -1.84 ± 0.43 | -0.01 ± 0.45 |
| AAGGAGCAAUAUUACGCAUC | -5.17 ± 0.36 | -2.52 ± 0.19 |
| AAGGAGCAAUAUUACGCCGG | -3.01 ± 0.4 | -2.6 ± 0.36 |

| Sequence | self-splicing fitness (ln) (30 °C) | self-splicing fitness (ln) (37 °C) |
| --- | --- | --- |
| AAGGAGCAAUAUUACGCGCA | -1.82 ± 0.18 | -0.97 ± 0.2 |
| AAGGAGCAAUAUUACGCUAC | -2.75 ± 0.43 |  |
| AAGGAGCAAUAUUACGCUGC | -3.07 ± 0.38 | -2.68 ± 0.26 |
| AAGGAGCAAUAUUACGCUUG | -1.86 ± 0.1 | -0.799 ± 0.13 |
| AAGGAGCAAUAUUACGGAAA |  | -0.83 ± 0.24 |
| AAGGAGCAAUAUUACGGGGU | -3.61 ± 0.18 | -2.31 ± 0.15 |
| AAGGAGCAAUAUUACGGUAC | -3.2 ± 0.47 | -2.19 ± 0.4 |
| AAGGAGCAAUAUUACGUAAC | -3.28 ± 0.25 | -2.96 ± 0.43 |
| AAGGAGCAAUAUUACGUACA | -2.75 ± 0.33 | -2.11 ± 0.21 |
| AAGGAGCAAUAUUACGUACU | -0.884 ± 0.11 | -0.189 ± 0.11 |
| AAGGAGCAAUAUUACGUAGC |  | -2.18 ± 0.42 |
| AAGGAGCAAUAUUACGUGCA | -3.03 ± 0.18 | -1.37 ± 0.17 |
| AAGGAGCAAUAUUACGUGCC | -3.03 ± 0.37 | -0.905 ± 0.39 |
| AAGGAGCAAUAUUACGUUUA | -2.95 ± 0.24 | -1.66 ± 0.16 |
| AAGUAGCAAUAUUACGAACG | -1.86 ± 0.11 | -1.17 ± 0.13 |
| AAGUAGCAAUAUUACGAAUU | -1.94 ± 0.12 | -0.748 ± 0.15 |
| AAGUAGCAAUAUUACGACCU | 0.0875 ± 0.13 | -0.703 ± 0.17 |
| AAGUAGCAAUAUUACGAUGC | -2.76 ± 0.16 | -0.209 ± 0.15 |
| AAGUAGCAAUAUUACGAUGG | -3.03 ± 0.2 | -2.75 ± 0.33 |
| AAGUAGCAAUAUUACGCUCU | -1.25 ± 0.18 | -1.29 ± 0.17 |
| AAGUAGCAAUAUUACGGCAU | -0.18 ± 0.094 | 0.382 ± 0.12 |
| AAGUAGCAAUAUUACGUCCC | -0.0634 ± 0.3 | -0.156 ± 0.24 |
| AAGUAGCAAUAUUACGUGCA | -0.781 ± 0.074 | -0.196 ± 0.098 |
| AAUAAGCAAUAUUACGAACA | -0.812 ± 0.15 | -0.462 ± 0.15 |
| AAUAAGCAAUAUUACGAACG | -1.5 ± 0.12 | -0.285 ± 0.17 |

— the supplement of paper PMC7877785
